Test results taken from paper PMC5028113.

Target: interferon-gamma (IFN-γ) (UniProt P01579 24-161)
Test: competition

Chain of interferon-gamma (IFN-γ) (P01579 24-161): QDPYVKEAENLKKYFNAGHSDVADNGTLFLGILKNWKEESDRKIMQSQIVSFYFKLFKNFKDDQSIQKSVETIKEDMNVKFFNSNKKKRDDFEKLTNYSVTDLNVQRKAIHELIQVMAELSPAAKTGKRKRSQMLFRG

B1: IFN-γ aptamer hybridized with biotin-DNA and thiol-DNA (invertase conjugate) (mixed)
DNA 1: TGGGGTTGGTTGTGTTGGGTGTTGTGTAAAAAAAAAAAAAACTACTCATCTGTGA
DNA 2: AAAAAAAAAAAATCACAGATGAGTAGT
?: AAAAAAAAAAACAACCAACCCCA
modifications: 5' biotin on strand 2; 5' thiol on strand 3
- binding result: binds
